Biological target: T1, hCAP18 (propeptide of LL-37), P49913
T1 chain: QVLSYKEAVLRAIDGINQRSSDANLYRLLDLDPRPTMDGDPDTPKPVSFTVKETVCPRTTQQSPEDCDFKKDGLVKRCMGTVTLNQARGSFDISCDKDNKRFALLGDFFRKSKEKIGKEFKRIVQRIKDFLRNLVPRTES

B1: Proteinase 3 (protein)
chain: IVGGHEAQPHSRPYMASLQMRGNPGSHFCGGTLIHPSFVLTAAHCLRDIPQRLVNVVLGAHNVRTQEPTQQHFSVAQVFLNNYDAENKLNDVLLIQLSSPANLSASVATVQLPQQDQPVPHGTQCLAMGWGRVGAHDPPAQVLQELNVTVVTFFCRPHNICTFVPRRKAGICFGDSGGPLICDGIIQGIDSFVIWGCATRLFPDFFTRVALYVDWIRSTLR
In the case of B1, the “Western blot of cleavage of the 4 kD LL-37 peptide from hCAP18 in supernatants of activated neutrophils” value is reported as “the cleavage of the 4 kD LL-37 peptide can be blocked by pretreatment of neutrophils with the proteinase 3 inhibitors”.
